In PMC4187101:
pKd: −log10 of the molar value.

Biological target: DNA adenine-N6 methyltransferase M.TaqI (Thermus aquaticus) (UniProt P14385)
Assay: competition, 2-aminopurine fluorescence titration
Conditions: 20 mM TrisOAc pH 7.9, 10 mM Mg(OAc)2, 50 mM KOAc, 0.01% reduced Triton X-100, with 1 mM DTT (unlocked) or no reducing agent (locked), 400 nM duplex vs 200 nM …

DNA adenine-N6 methyltransferase M.TaqI (Thermus aquaticus), sequence (P14385 whole entry): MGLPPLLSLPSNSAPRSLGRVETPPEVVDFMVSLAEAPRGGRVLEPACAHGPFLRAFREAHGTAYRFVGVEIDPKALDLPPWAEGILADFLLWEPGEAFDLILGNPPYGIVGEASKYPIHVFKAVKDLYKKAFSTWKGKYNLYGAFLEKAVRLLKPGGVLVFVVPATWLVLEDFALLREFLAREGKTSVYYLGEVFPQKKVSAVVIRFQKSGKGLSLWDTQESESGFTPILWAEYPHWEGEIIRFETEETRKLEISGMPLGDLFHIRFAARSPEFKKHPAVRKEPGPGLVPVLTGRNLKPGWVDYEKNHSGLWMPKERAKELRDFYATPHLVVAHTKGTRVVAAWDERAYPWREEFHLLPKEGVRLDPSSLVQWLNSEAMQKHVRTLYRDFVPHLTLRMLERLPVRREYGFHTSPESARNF

Sequence | pKd (strand 1 position 9 (N) = 6-thio-2'-deoxyinosine, S-ethylene-S interstrand cross-linked to 4-thio-2'-deoxyuridine at strand 2 U6, strand 2 A9 = N6-methyl-dA) | pKd (strand 1 position 9 (N) = 6-thio-2'-deoxyinosine (I6S), strand 2 U6 = 4-thio-2'-deoxyuridine (U4S), A9 = N6-methyl-dA, all other residues DNA)
GCCGCTCGNTGCCG / CGGCAUCGAGCGGC [1I6S-Et-S4U2 (locked, cross-linked A/T analog)] | 8.22 | 
GCCGCTCGNTGCCG / CGGCAUCGAGCGGC [1I6S·2U4S (unlocked A/T analog)] |  | 9.00
